# Measured values published in patent publication US20250115669A1, “FGFR1/KLB Targeting Agonistic Antigen-Binding Proteins and Conjugates Thereof with GLP-1R Agonistic Peptides” (SANOFI, priority 2020, published 2025).
# T1: human beta-Klotho (Homo sapiens, UniProt Q86Z14)
# T1 sequence (Q86Z14 1-1044): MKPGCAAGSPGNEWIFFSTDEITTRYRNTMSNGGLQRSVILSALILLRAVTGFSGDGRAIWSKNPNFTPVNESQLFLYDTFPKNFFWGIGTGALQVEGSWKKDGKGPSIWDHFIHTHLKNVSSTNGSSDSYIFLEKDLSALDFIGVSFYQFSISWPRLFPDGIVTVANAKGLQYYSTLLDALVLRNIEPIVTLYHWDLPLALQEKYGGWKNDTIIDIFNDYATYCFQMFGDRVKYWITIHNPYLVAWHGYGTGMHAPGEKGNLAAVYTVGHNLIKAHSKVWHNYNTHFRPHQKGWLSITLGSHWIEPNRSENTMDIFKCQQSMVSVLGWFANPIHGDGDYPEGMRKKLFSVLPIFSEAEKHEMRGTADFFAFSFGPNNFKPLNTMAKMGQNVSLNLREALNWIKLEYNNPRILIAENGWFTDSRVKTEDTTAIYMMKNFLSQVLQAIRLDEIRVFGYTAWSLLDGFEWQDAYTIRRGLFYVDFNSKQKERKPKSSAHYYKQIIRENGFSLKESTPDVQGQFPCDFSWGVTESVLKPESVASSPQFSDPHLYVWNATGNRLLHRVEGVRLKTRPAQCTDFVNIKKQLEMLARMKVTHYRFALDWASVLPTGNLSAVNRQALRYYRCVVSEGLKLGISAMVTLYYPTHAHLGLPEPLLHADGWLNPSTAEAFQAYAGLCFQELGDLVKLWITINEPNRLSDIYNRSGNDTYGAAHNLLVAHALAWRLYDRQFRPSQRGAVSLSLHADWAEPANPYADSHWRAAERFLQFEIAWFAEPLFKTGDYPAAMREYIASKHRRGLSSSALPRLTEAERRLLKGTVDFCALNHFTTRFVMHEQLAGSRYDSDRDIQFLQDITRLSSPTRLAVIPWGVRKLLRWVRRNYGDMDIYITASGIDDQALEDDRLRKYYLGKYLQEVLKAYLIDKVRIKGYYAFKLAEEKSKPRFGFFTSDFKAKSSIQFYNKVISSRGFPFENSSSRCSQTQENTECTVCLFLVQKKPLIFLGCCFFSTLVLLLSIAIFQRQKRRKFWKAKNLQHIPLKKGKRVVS
# Target: T1, human beta-Klotho
# Assay: SPR off-rate screening of antibody mutants (human beta-Klotho captured by anti-His antibody)
# Assay type: binding
# Conditions: mean, n=3
# How it was run: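 First, anti-His antibody is immobilized on a CM5 chip by amine coupling and used to capture beta-Klotho. Next, each antibody mutant is injected at 50 nmol/L for 240 sec, then dissociation is followed for 300 sec. Finally, kd is fitted with a single exponential.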
row,koff human KLB,Molecule
1,0.00143 s⁻¹,"Ab0332: IgG4 PE; 16H7 VL (N25S, D49S, D50E, D91E, N93A); 16H7 VH (M34V, I83T, D109E) (antibody) VH: QVTLKESGPVLVKPTETLTLTCTVSGFSLNNARVGVSWIRQPPGKALEWLAHIFSNDEKSYSTSLKSRLTISKDTSKSQVVLTMTNMDPVDTATYYCARSVVTGGYYYEGMDVWGQGTTVTVSS light: SYVLTQPPSVSVAPGQTARITCGGSNIGSESVHWYQQKPGQAPVLVVYSESDRPSGIPERFSGSNSGNTATLTISRVEAGDEADYYCQVWEGASDHVVFGGGTKLTVLGQPKANPTVTLFPPSSEELQANKATLVCLISDFYPGAVTVAWKADGSPVKAGVETTKPSKQSNNKYAASSYLSLTPEQWKSHRSYSCQVTHEGSTVEKTVAPTECS"
2,invalid fit,"Ab0334: IgG4 PE; 16H7 VL (N25S, D49S, D50A, D91A, N93S); 16H7 VH (M34V, I83T, D109E) (antibody) VH: QVTLKESGPVLVKPTETLTLTCTVSGFSLNNARVGVSWIRQPPGKALEWLAHIFSNDEKSYSTSLKSRLTISKDTSKSQVVLTMTNMDPVDTATYYCARSVVTGGYYYEGMDVWGQGTTVTVSS light: SYVLTQPPSVSVAPGQTARITCGGSNIGSESVHWYQQKPGQAPVLVVYSASDRPSGIPERFSGSNSGNTATLTISRVEAGDEADYYCQVWAGSSDHVVFGGGTKLTVLGQPKANPTVTLFPPSSEELQANKATLVCLISDFYPGAVTVAWKADGSPVKAGVETTKPSKQSNNKYAASSYLSLTPEQWKSHRSYSCQVTHEGSTVEKTVAPTECS"
3,0.0005296 s⁻¹,"Ab0337: IgG4 PE; 16H7 VL (N25S, D49S, D50H, D91E, N93E); 16H7 VH (M34V, I83T, D109E) (antibody) VH: QVTLKESGPVLVKPTETLTLTCTVSGFSLNNARVGVSWIRQPPGKALEWLAHIFSNDEKSYSTSLKSRLTISKDTSKSQVVLTMTNMDPVDTATYYCARSVVTGGYYYEGMDVWGQGTTVTVSS light: SYVLTQPPSVSVAPGQTARITCGGSNIGSESVHWYQQKPGQAPVLVVYSHSDRPSGIPERFSGSNSGNTATLTISRVEAGDEADYYCQVWEGESDHVVFGGGTKLTVLGQPKANPTVTLFPPSSEELQANKATLVCLISDFYPGAVTVAWKADGSPVKAGVETTKPSKQSNNKYAASSYLSLTPEQWKSHRSYSCQVTHEGSTVEKTVAPTECS"
4,0.0002507 s⁻¹,"Ab0333: IgG4 PE; 16H7 VL (N25S, D49S, D50Y, D91A, N93S); 16H7 VH (M34V, I83T, D109E) (antibody) VH: QVTLKESGPVLVKPTETLTLTCTVSGFSLNNARVGVSWIRQPPGKALEWLAHIFSNDEKSYSTSLKSRLTISKDTSKSQVVLTMTNMDPVDTATYYCARSVVTGGYYYEGMDVWGQGTTVTVSS light: SYVLTQPPSVSVAPGQTARITCGGSNIGSESVHWYQQKPGQAPVLVVYSYSDRPSGIPERFSGSNSGNTATLTISRVEAGDEADYYCQVWAGSSDHVVFGGGTKLTVLGQPKANPTVTLFPPSSEELQANKATLVCLISDFYPGAVTVAWKADGSPVKAGVETTKPSKQSNNKYAASSYLSLTPEQWKSHRSYSCQVTHEGSTVEKTVAPTECS"

# The remaining lines, values behind:
row,Molecule,koff human KLB
1,"Ab0342: IgG4 PE; 16H7 VL (N25S, D49A, D50A, D91A, N93E); 16H7 VH (M34V, I83T, D109E) (antibody) VH: QVTLKESGPVLVKPTETLTLTCTVSGFSLNNARVGVSWIRQPPGKALEWLAHIFSNDEKSYSTSLKSRLTISKDTSKSQVVLTMTNMDPVDTATYYCARSVVTGGYYYEGMDVWGQGTTVTVSS light: SYVLTQPPSVSVAPGQTARITCGGSNIGSESVHWYQQKPGQAPVLVVYAASDRPSGIPERFSGSNSGNTATLTISRVEAGDEADYYCQVWAGESDHVVFGGGTKLTVLGQPKANPTVTLFPPSSEELQANKATLVCLISDFYPGAVTVAWKADGSPVKAGVETTKPSKQSNNKYAASSYLSLTPEQWKSHRSYSCQVTHEGSTVEKTVAPTECS",invalid fit
2,"Ab0338: IgG4 PE; 16H7 VL (N25S, D49S, D50S, D91A, N93S); 16H7 VH (M34V, I83T, D109E) (antibody) VH: QVTLKESGPVLVKPTETLTLTCTVSGFSLNNARVGVSWIRQPPGKALEWLAHIFSNDEKSYSTSLKSRLTISKDTSKSQVVLTMTNMDPVDTATYYCARSVVTGGYYYEGMDVWGQGTTVTVSS light: SYVLTQPPSVSVAPGQTARITCGGSNIGSESVHWYQQKPGQAPVLVVYSSSDRPSGIPERFSGSNSGNTATLTISRVEAGDEADYYCQVWAGSSDHVVFGGGTKLTVLGQPKANPTVTLFPPSSEELQANKATLVCLISDFYPGAVTVAWKADGSPVKAGVETTKPSKQSNNKYAASSYLSLTPEQWKSHRSYSCQVTHEGSTVEKTVAPTECS",0.0004292 s⁻¹
3,"Ab0339: IgG4 PE; 16H7 VL (N25S, D49A, D50E, D91A, N93S); 16H7 VH (M34V, I83T, D109E) (antibody) VH: QVTLKESGPVLVKPTETLTLTCTVSGFSLNNARVGVSWIRQPPGKALEWLAHIFSNDEKSYSTSLKSRLTISKDTSKSQVVLTMTNMDPVDTATYYCARSVVTGGYYYEGMDVWGQGTTVTVSS light: SYVLTQPPSVSVAPGQTARITCGGSNIGSESVHWYQQKPGQAPVLVVYAESDRPSGIPERFSGSNSGNTATLTISRVEAGDEADYYCQVWAGSSDHVVFGGGTKLTVLGQPKANPTVTLFPPSSEELQANKATLVCLISDFYPGAVTVAWKADGSPVKAGVETTKPSKQSNNKYAASSYLSLTPEQWKSHRSYSCQVTHEGSTVEKTVAPTECS",invalid fit
4,"Ab0340: IgG4 PE; 16H7 VL (N25S, D49A, D50E, D91E, N93S); 16H7 VH (M34V, I83T, D109E) (antibody) VH: QVTLKESGPVLVKPTETLTLTCTVSGFSLNNARVGVSWIRQPPGKALEWLAHIFSNDEKSYSTSLKSRLTISKDTSKSQVVLTMTNMDPVDTATYYCARSVVTGGYYYEGMDVWGQGTTVTVSS light: SYVLTQPPSVSVAPGQTARITCGGSNIGSESVHWYQQKPGQAPVLVVYAESDRPSGIPERFSGSNSGNTATLTISRVEAGDEADYYCQVWEGSSDHVVFGGGTKLTVLGQPKANPTVTLFPPSSEELQANKATLVCLISDFYPGAVTVAWKADGSPVKAGVETTKPSKQSNNKYAASSYLSLTPEQWKSHRSYSCQVTHEGSTVEKTVAPTECS",0.00176 s⁻¹
5,"Ab0336: IgG4 PE; 16H7 VL (N25S, D49S, D50H, D91A, N93S); 16H7 VH (M34V, I83T, D109E) (antibody) VH: QVTLKESGPVLVKPTETLTLTCTVSGFSLNNARVGVSWIRQPPGKALEWLAHIFSNDEKSYSTSLKSRLTISKDTSKSQVVLTMTNMDPVDTATYYCARSVVTGGYYYEGMDVWGQGTTVTVSS light: SYVLTQPPSVSVAPGQTARITCGGSNIGSESVHWYQQKPGQAPVLVVYSHSDRPSGIPERFSGSNSGNTATLTISRVEAGDEADYYCQVWAGSSDHVVFGGGTKLTVLGQPKANPTVTLFPPSSEELQANKATLVCLISDFYPGAVTVAWKADGSPVKAGVETTKPSKQSNNKYAASSYLSLTPEQWKSHRSYSCQVTHEGSTVEKTVAPTECS",invalid fit
6,"Ab0341: IgG4 PE; 16H7 VL (N25S, D49A, D50Y, D91A, N93S); 16H7 VH (M34V, I83T, D109E) (antibody) VH: QVTLKESGPVLVKPTETLTLTCTVSGFSLNNARVGVSWIRQPPGKALEWLAHIFSNDEKSYSTSLKSRLTISKDTSKSQVVLTMTNMDPVDTATYYCARSVVTGGYYYEGMDVWGQGTTVTVSS light: SYVLTQPPSVSVAPGQTARITCGGSNIGSESVHWYQQKPGQAPVLVVYAYSDRPSGIPERFSGSNSGNTATLTISRVEAGDEADYYCQVWAGSSDHVVFGGGTKLTVLGQPKANPTVTLFPPSSEELQANKATLVCLISDFYPGAVTVAWKADGSPVKAGVETTKPSKQSNNKYAASSYLSLTPEQWKSHRSYSCQVTHEGSTVEKTVAPTECS",invalid fit
7,"Ab0343: IgG4 PE; 16H7 VL (N25S, D49A, D50A, D91A, N93S); 16H7 VH (M34V, I83T, D109E) (antibody) VH: QVTLKESGPVLVKPTETLTLTCTVSGFSLNNARVGVSWIRQPPGKALEWLAHIFSNDEKSYSTSLKSRLTISKDTSKSQVVLTMTNMDPVDTATYYCARSVVTGGYYYEGMDVWGQGTTVTVSS light: SYVLTQPPSVSVAPGQTARITCGGSNIGSESVHWYQQKPGQAPVLVVYAASDRPSGIPERFSGSNSGNTATLTISRVEAGDEADYYCQVWAGSSDHVVFGGGTKLTVLGQPKANPTVTLFPPSSEELQANKATLVCLISDFYPGAVTVAWKADGSPVKAGVETTKPSKQSNNKYAASSYLSLTPEQWKSHRSYSCQVTHEGSTVEKTVAPTECS",invalid fit
